Results taken from paper PMC6019379, “RecA-like domain 2 of DNA-dependent ATPase A domain, a SWI2/SNF2 protein, mediates conformational integrity and ATP hydrolysis” (Bioscience Reports, 2018).
Numbering of substitutions follows the chain as printed.

Columns and labels:
Settings in all cases: protein: recombinant; tags: His (Ni-NTA, pET-14b); hairpin
ADAAD T560A [1] = molecular target: T1, ADAAD T560A (Bos taurus (bovine), UniProt Q9TTA5 221-940, T780A); assay: intrinsic tryptophan fluorescence titration; no ATP; Fluorescence titration (ex 295 nm, em 340 nm), one-site saturation fit; buffer, salt, pH and temperature not given in the material. Wild-type ADAAD Kd values are cited from ref 24 and not listed
T1 sequence: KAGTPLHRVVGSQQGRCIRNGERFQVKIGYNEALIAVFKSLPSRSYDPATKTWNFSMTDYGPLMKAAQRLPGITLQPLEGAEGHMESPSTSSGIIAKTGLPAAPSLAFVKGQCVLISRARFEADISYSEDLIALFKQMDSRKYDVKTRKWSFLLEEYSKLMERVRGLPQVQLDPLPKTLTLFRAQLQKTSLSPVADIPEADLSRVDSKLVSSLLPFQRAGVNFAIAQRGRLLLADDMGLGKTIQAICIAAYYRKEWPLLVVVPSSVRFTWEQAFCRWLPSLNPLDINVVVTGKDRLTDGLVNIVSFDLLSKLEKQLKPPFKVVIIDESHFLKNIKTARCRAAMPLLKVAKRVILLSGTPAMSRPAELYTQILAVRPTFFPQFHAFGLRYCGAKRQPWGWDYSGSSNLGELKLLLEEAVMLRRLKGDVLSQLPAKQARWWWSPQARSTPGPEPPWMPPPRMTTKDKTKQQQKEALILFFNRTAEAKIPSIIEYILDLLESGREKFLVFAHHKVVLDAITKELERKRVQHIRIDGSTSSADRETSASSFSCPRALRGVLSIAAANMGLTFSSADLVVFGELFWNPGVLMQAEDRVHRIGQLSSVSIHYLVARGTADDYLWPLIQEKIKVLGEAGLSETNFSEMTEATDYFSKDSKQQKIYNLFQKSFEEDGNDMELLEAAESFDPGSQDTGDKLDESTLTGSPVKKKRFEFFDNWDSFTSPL

ADAAD R595K = molecular target: T2, ADAAD R595K (Bos taurus (bovine), UniProt Q9TTA5 221-940, R815K); assay: as above
T2 sequence: T1 sequence with A560T, R595K

ADAAD D591H = molecular target: T3, ADAAD D591H (Bos taurus (bovine), UniProt Q9TTA5 221-940, D811H); assay: as above
T3 sequence: T1 sequence with A560T, D591H

ADAAD T560A [2] = molecular target: T1, ADAAD T560A; assay: intrinsic tryptophan fluorescence titration; saturating ATP; Fluorescence titration (ex 295 nm, em 340 nm), one-site saturation fit; buffer, salt, pH and temperature not given in the material. Wild-type ADAAD Kd values are cited from ref 24 and not listed

GCGCAATTGCGCTCGACGATTTTTTAGCGCAATTGCGC (structured_DNA) [slDNA (stem-loop DNA)]
Kd (ADAAD T560A [1]): 6.8 ± 0.6 nM | Kd (ADAAD R595K): 25.1 ± 7.4 nM | Kd (ADAAD D591H): 21.3 ± 7 nM | Kd (ADAAD T560A [2]): 1.4 ± 0.3 nM
